This is an account of results in article PMC4049228 (Science (New York, N.Y.), 2014).

The assay has as its target T1, Ricinus communis ATXR5 (RcATXR5 a.a. 158–374; nSET and SET domain) (Ricinus communis, UniProt B9RU15 158-374).
T1 sequence: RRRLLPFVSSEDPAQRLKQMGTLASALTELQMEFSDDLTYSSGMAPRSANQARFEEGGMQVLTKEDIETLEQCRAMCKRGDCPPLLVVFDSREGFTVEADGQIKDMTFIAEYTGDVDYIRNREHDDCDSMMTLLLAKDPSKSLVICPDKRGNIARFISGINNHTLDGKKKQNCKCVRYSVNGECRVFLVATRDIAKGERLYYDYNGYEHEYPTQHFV
Put plainly: crystal structure.

Consider KQLATKAARKSAPATGGVK [histone H3.1 peptide (a.a. 18–36)], for which the binding result is “binds”.
